Laboratory results taken from publication PMC3025530 (The Biochemical journal, 2010).

T1: ADAM12-Cat (truncated ADAM12 protein consisting of only the pro and catalytic domains) (human, UniProt O43184-2 29-419)
T1 sequence (looked up): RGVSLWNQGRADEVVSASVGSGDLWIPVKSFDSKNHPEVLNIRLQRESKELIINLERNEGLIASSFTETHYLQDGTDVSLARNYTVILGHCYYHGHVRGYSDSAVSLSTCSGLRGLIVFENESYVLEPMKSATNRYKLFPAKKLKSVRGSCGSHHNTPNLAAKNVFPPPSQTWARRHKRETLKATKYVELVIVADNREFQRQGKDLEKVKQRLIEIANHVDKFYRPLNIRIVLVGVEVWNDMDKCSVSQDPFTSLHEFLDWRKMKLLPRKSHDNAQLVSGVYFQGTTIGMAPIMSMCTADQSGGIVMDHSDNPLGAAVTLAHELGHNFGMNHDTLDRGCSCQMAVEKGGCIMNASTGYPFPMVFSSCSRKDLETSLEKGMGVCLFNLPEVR

T2: ADAM12-S (shorter secreted form of ADAM12), full-length (human, UniProt O43184-2 29-707)
T2 sequence (looked up): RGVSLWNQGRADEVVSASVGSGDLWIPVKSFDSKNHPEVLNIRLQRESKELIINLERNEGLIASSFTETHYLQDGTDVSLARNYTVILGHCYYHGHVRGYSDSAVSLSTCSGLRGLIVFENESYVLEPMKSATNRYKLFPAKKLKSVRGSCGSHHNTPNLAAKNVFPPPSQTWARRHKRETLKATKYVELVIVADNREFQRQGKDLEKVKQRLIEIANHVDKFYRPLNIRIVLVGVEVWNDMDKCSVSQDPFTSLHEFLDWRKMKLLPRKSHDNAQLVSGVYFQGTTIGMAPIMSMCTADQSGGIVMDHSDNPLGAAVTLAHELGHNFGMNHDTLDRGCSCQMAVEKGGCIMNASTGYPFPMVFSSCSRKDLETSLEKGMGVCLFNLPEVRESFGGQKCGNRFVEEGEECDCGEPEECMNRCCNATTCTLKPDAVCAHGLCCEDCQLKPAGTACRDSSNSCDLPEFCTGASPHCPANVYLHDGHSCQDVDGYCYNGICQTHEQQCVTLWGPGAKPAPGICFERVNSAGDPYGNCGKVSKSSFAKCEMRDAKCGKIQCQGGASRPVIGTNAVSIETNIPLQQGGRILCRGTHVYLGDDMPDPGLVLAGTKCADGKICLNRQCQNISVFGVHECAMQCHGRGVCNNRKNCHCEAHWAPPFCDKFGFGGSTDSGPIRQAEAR


Assays:
[1] = target: T1, ADAM12-Cat (truncated ADAM12 protein …); assay: enzyme inhibition kinetics
[2] = target: T2, ADAM12-S (shorter secreted form of …); assay: enzyme inhibition kinetics

Row | Ki [1] [nM] | Ki [2] [nM] | Binder
1 | 741 | 223 | TIMP-1 (tissue inhibitor of metalloproteinases 1), full-length (natural protein) not shown
2 | 0.93 | 4.4 | N-TIMP-3 (N-terminal domain of TIMP-3), wild-type (domain or fragment, human) CTCSPSHPQDAFCNSDIVIRAKVVGKKLVKEGPFGTLVYTIKQMKMYRGFTKMPHVQYIHTEASESLCGLKLEVNKYQYLLTGRVYDGKMYTGLCNFVERWDQLTLSQRKGLNYRYHLGCN
